# Assay results from the domain aggregation screens of Martell et al. (2025).
# Assay: soluble fraction after stress (log2 fold change); higher = more stays soluble; pooled small domains, quantitative proteomics
# Conditions: stress: 75 degC
# 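Note: 20 min heating vs room temperature control held 20 min.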
row,Sequence,soluble fraction (log2)
1,HMIEYILDYLANRGVYAASQGEQQQMEDGIARYLQENGLEDGNTGAYYQKYVSNHLQQISASDLKAYFLN,-0.946
2,HMIEYYDDEELDVFKGRQSDNYTNKEIEQFAEVLHTMRQDEVKGWNRSLILRSINLPDSLKDEVIMLI,-0.568
3,HMIFDPTTLPEKQLLVYGIISSHPGLNAKQISEMLTLKKSSIETAIKGLRKKEIIEYEGTTRNGG,-0.267
4,HMIFEEDILKEFRGSLIFITHDRRFLDNIATRIIELDRGKLLSFPGNFSAYKKAKNEQLANEAVENA,-0.439
5,HMIFEETVFKDIAFGPKNMGLSEAEIKRRVYETAENIGLSQELMERSPFELSGGQKRRVAIAGVMAMEP,0.268
6,HMIFELDSDRASAGNTIGKLVSKWNNTEVASVQFVSGDDTSNKDNASIYLNTRSGGSGNLVRLRITK,0.429
7,HMIFRPALITDLDAVERHYTELLTREAETGRSSTNWSLGVYPTRQTATAAQAAGTLWVLEREGQVVASVI,-0.0961
8,HMIFTPNGDRVNDVFEIEMGVKLEFQIIILNQQNQTVFKSADPDFKWDGTMLNGEPAPSGTYLYYFSAKD,0.207
9,HMIGERIKRARAAAGLSMQALGKQVGISANMVKKYEHDQSMPSSGVLLKLATALSVRTEYFFRPA,-1.38
10,HMIGGASVFKQFLPLADKMLLTLIHSEFEGDTYFPVFSEKEWLLQESSSLLSATGYQLSFQTYIR,0.0107
11,HMIGGEDEILKVVLEVLEEKPEAIEQYKNGRTNIVDFLVGQVMKKTRGQANPATTREFMIREIEK,-0.522
12,HMIGKDLLGYEVFSESGDLVGILKDVMWLPHSDVYVITNGGKELLIPVIPEVVKGINHEQGVIVISPM,0.394
13,HMIGPYAAAKLMTNKDFVKWLSGGVEKSVFNPNSFGQHIRRLVQISEVNPDIRDEINAVVQGLTQ,-0.445
14,HMIGRIKGQLIEKKSDSVVIDVHGIGYVVYVTEKTARSLTLGDQSRDISLYSELLVKEDLLQLVGFI,-0.075
15,HMIGRRLKVARASAGLSLRELAARMDGVVTPQAIGKYERNEDMPGSRALMALASALGVSEGYLLSD,-1.38
16,HMIHDSAESVVFPFGKYKGYTLAHVIREHPHYTYWIRDNADFSPLWREAVSLALQNRDIGHLNLPHVK,-0.222
17,HMIHMNMGQKINQLRLQKGFTLEELGNLVGVGKSTVRKWENGMIANMKRDKILLVAEALDTSPAYLMGWD,-2.12
18,HMIIENIVVEIKGEVYNPGLYILEQGSRINDLIELSGGFTKDANGTDLNLAKVLSDGEVIIVSKKG,-1.29
19,HMIIIMKPNASEEAVRKVTHIIESKGLQVHLSKGSQVTIVGVVGDKTRLQGSNIEISEGVDKVVAVT,-1.22
20,HMIILDASASRAIGNGTIEETKWDFGNGESSTNRGGPIVERQIYANQAAYILKLSMKTNDGQLFTKEIQLL,0.162
21,HMIINKFERRKEIQIQFNNQERIKFKDFFLNLSKENIIVSFLILLELVRESLIDFSGTNENDIEFFIK,-2.38
22,HMIITTPYKVTASAINIRSGRGTSYSIIGTVSKGQTVDVYNNSLSKGWVKVKFSGSVGYAYAKYLEK,-1.62
23,HMIIVMSANANAREISEVIARIRAMGYDVHLSHGKERTIIGVIGRGTPIDREQLSLMSGVQQVMPV,-2.44
24,HMIKIEDILNVESVELSDSEYKKFLNGILINVKNLENGWAKVYSGNEFKGFGIVDKNLLKRKIVID,-1.49

row,Sequence,soluble fraction (log2)
1,HMIKIEDYTNKDYNKVEASLEVKGLVVNIEYKAVDDKAKYKGKEDLIIDQSVKKDATLVKGDTIILYLPK,-1.21
2,HMIKISDYLSEEDLNFIKEMEKIYPYFDFDSEGNLILTKSIDELKDKYGFDEAFVSRLDTVLNSR,0.108
3,HMIKITLGWVISVRRHDLGYTQHKMARAVGISDLTVSRIESDDGITPDNNTLRKIAEYLKIDYNSLLTLK,-1.37
4,HMIKLIKKDTNISELKMSKMPWDVMLYGKPYQVVSIKGYVHTIGGRRGENDLWMYPRDESPTYENLIEFQ,-2.19
5,HMIKNKDRIQYTLAHRKAFRKIEKELLGYNTFRSLFHDLDKVFLYPFFDYKKVHNFHRNHAHH,0.132
6,HMIKRETNDNPVDPASLSLGDRVKILTLNQNGEIISLPDEKGLLQVQVGIMKIGVNVSDIMLI,-0.9
7,HMIKRITDEQHPVDVDRLLVVTFTNAAASEMRERIGDAIEAALEKDPYNQHLQRQLTLVHNAQITTIDS,0.171
8,HMIKSEERIQNIKEYILEFQFTYHRTPTMAQIAEAVGTVKSNVYKYLSEMEERGILTRNKREIEINDTIQ,-0.807
9,HMIKSMTGYGSAKGTVEGIEVSVELKSVNNKFLDTSIRLPRSFLFAEETIKQAVSSHISRGKVDVFVSVDS,0.587
10,HMIKYTIEELGELTGFTRRTIRYYVQEGLIDPPAGRGRGGFYYDSHVQQLLRIKSFQEKGIGITAMVSLM,-2.32
11,HMILEEIIGKNIARYREAAGLTQATLAEKIGISTAFVSRVERGQKKMKVETLYATAKVLNVSVDALLS,-2.61
12,HMILKNVPSNLVNQRLDKVATVLFQTYSRTQIKKWILEGRLLVNGEISNPKDLVNENDEIEINPI,-2.95
13,HMILKQTHIVQELTGPIRLQEYGVGIFQQISTKSALKKALKKNQITVDGVVGSTATFIKGGEIIIYHVTE,-2.67
14,HMILNDRSELLDVVKRVIAANPASVADYRKGKKKVLGFLVGQAMKETKGQADPRILNELFLQELGEN,0.108
15,HMILNNAKINTELNSLAEFTQRSLDSNTSEIGFYDYKKISYIASFATMKTTNWNVIIRAPINEFMGTVN,0.126
16,HMILQTLSERVTETLRDWILHGHFKPGDKIEEVPIAERMGVSRTPVRAAFATLTNEGLIDHQPNRGYQVRV,-0.496
17,HMILSTNFFRHIVPKEYQTSYGTMKKWLTDHNVIGTNSIPQGIGYRIPTQGLSSTFSFKVVDVLPDR,-0.986
18,HMIMDQTILRKQRELTDRLNRYRNEYYNHNKPSVSDEVYDRLFDELQSLEKETGVQMANSPTTTVG,-0.0853
19,HMIMGTITKRTNPSGAIVYRAQIRIKKAGYPDFSESRTFSKKAMAVEWLKLREAELEMHPELLFR,-2.35
20,HMIMHLNQIIRNKRLAAGLTQEALAQKVGVTAPAVSKWEKGISYPDITLLPILARNLNTDVNTLLDFSA,-1.29
21,HMIMNLNVLANNVRRLRTAQRLSQSALASKAGLSVPAIKNLENARNEPRVNTVQVIAHALEVRLQDLFAPT,-1.81
22,HMIMTEKEKKLLNRYIMHDTIHKLYHEQNKSMRWIADNLGINFRTVQKYLDMDSGEFQKYSESISNR,-0.97
23,HMIMTIYEYIARNNPTGAKRVIESFGYVVTQPKKMGDNLRMLVAQEGEPALKAVVDLHPDKDLILEV,-2.69
24,HMINAQETEIYRFLIEKANRLYSMVLGLKREELMTATRQFEEEVKHSSIHHLPKIYQAFSSYLELLERG,-1.2

row,Sequence,soluble fraction (log2)
1,HMINDKLQHLFSLFPAMDKELKRKGITRQILWVEYKKQYPLGFGRSQFNSYFAAWKAQVSPS,-1.98
2,HMINFLSKREIEVLRLVADGLSNRDVGQYLFISESTVKRHLSTIYEKLAVKSRTQAIDHARRADL,-3.6
3,HMINGTITFYDDTTLKGELSSLDTKYLFIIPNGLVMPEKIAVSDIEYFNLDNGITLIQDGISKQTY,-1.09
4,HMINLGDLEVGHTYHTRMPILQNDLKYSHKSPIQIVAEHSIVYGVRVYIGFLNEHRVLVTADDV,0.0105
5,HMINLRTALNNAGVMQKELSDILYMTPQDVNRRFSGVTKWKPLEKRAIMQFLEDRGFEYTEEQLF,-0.564
6,HMINLVPFELKFITAQVLDDIIKKIGINADTIILDINPKKIWVYAGEQELSDIQNIVKNVDVEDNI,-1.71
7,HMINVLTPKQIEATTIAVKYGYYENPRTVSMRELSEISGIARSTLQEHLSKAEAALMILAAKSQL,-0.365
8,HMINVVDEVIKHLETNIISGFWAPGQKIDSEATLSKQLNVSRASIHTAIQQLIATGVLESFQGKGTFVRS,-0.305
9,HMIPDGKWKEDPISDGQKNFINSLIEQAIDAGQDELGAEAKKYLASGEATKGNASAMIDKLKSAL,0.39
10,HMIPDMSLELAMSEQTSKGDLYGDLPNDKLALMFNAISKKVPHTDDHKRKMVAIQTILESRAS,-0.415
11,HMIPEGKWMEDPISEGQIKFIETLIKQAIDSGQDALGAEAKQYLSSGEATKGNASSMIDKLKDAL,0.433
12,HMIPEILNGYTKWGDDEPFEDHAGPFYMKMMPSTGRHLSAFIPEQRHMNGGGFLHGGMLMSFADYALFVI,0.244
13,HMIPEKEISYMMPDGFMPKELKIIHITESGRKQIYSAAHKPLDLVNVKAPFVPNTKVQIYINDVPIEELKI,-1.01
14,HMIPKDKQAWIALTYIYGVGRTTSMEILKKAQVGEEIRMKDLTEEEVTRIRNIIDKEYEVEGDLRRN,-0.252
15,HMIPNEKEAARWDALTAEHTAKLNALEGDALDKVGSHEDVSIKRAGVGDAAFREKILSRTHPDDLERALST,-0.0132
16,HMIQHFARKRRQLELAVQRLSGRMAETNGQVTADMQRLIQQVKALVAELSHVFSRAYLRRVLGGVALVIGS,-0.597
17,HMIQLTDAEFNELVTYIKKNYGINLIKKRLLIEARMYSVLAKHGFTSFTEYINLIKRDPAELNTMLNKLTT,-3.26
18,HMIQMRVKVPKNIAGGSLMGAHHFVKSALARTNPGGSTSNYKIQATDGTPLTLGDLTARQYDEVLIISG,-0.668
19,HMIQTKKVTFTVEPTVNFEKINISGIEFKINSGSSITAIYEKNSHNFDEVLDFLKQKGVKILDIVTED,-0.251
20,HMIRILIVDDSAFMRKLLSDVFEEDKNFVVVDTARNGQDAVEKVKRLKPDLVTMDVEMPVMDGLTAVEIIM,-0.453
21,HMIRSNLAEQAYAQLKALIHDFQLLPGDRFSENEMGTRLGVSRTPVREALFRLRNEGFLEVESKAGWYVK,-3.04
22,HMISAADLQTYLKGMDYPAGREDLVAHAQRNNAPESVITILQGFSDRTYRSAAEVSEEFGRE,0.495
